# From patent US20150344570A1 (published 2015)
# T1: FcγRIIb extracellular domain with C-terminal His tag (human, UniProt P31994 43-217)
# T1 construct: extracellular domain; also called FcgRIIb; 2b; not shown: His tag at the C terminus
# T1 sequence (looked up): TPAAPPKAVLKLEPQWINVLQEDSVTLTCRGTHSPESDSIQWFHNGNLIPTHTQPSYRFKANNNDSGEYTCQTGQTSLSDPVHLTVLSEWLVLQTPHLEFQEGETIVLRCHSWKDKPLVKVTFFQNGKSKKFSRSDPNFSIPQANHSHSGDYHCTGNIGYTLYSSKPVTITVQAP
# Target: T1, FcγRIIb extracellular domain with …
# Assay: SPR, relative binding, HoCon Ab = 100
# Protocol: Analysis of interaction between objective antibody and the FcγR was carried out using Biacore T100 (GE Healthcare). HBS-EP+ (GE Healthcare) was used as the running buffer, and the measurement temperature was set to 25° C. Chips produced by immobilizing the antigen peptide by the amine coupling method to a Series S Sencor Chip CM5 (GE Healthcare), or alternatively, chips produced by allowing preliminarily biotinylated antigen peptides to interact with and immobilize onto a Series S Sensor Chip SA (certified) (GE Healthcare) were used. Antibodies of interest were captured onto an antigen peptide-immobilized chip, and allowed to interact to each FcγR diluted with running buffer. To regenerate and repeatedly use the chip, the antibodies captured on the chip were washed off by reacting 10 mM glycine-HCl, pH 1.5.
row,Ho/Con_2b,Binder
1,207 % of control,"GpH7-B3 variant P238_09D/GpL16-k0 (antibody, human IgG1, kappa, also called Ho Ab P238_09D) heavy: not shown light: DIVMTQSPLSLPVTPGEPASISCQASESLVHSNRNTYLHWYLQKPGQSPQLLIYKVSNRFSGVPDRFSGSGSGTDFTLKISRVEAEDVGVYYCSQNTHVPPTFGQGTKVEIERTVAAPSVFIFPPSDEQLKSGTASVVCLLNNFYPREAKVQWKVDNALQSGNSQESVTEQDSKDSTYSLSSTLTLSKADYEKHKVYACEVTHQGLSSPVTKSFNRGEC"
2,104 % of control,"GpH7-B3 variant T335_15Y/GpL16-k0 (antibody, human IgG1, kappa, also called Ho Ab T335_15Y) heavy: not shown light: DIVMTQSPLSLPVTPGEPASISCQASESLVHSNRNTYLHWYLQKPGQSPQLLIYKVSNRFSGVPDRFSGSGSGTDFTLKISRVEAEDVGVYYCSQNTHVPPTFGQGTKVEIERTVAAPSVFIFPPSDEQLKSGTASVVCLLNNFYPREAKVQWKVDNALQSGNSQESVTEQDSKDSTYSLSSTLTLSKADYEKHKVYACEVTHQGLSSPVTKSFNRGEC"
3,108 % of control,"GpH7-B3 variant T335_10E/GpL16-k0 (antibody, human IgG1, kappa, also called Ho Ab T335_10E) heavy: not shown light: DIVMTQSPLSLPVTPGEPASISCQASESLVHSNRNTYLHWYLQKPGQSPQLLIYKVSNRFSGVPDRFSGSGSGTDFTLKISRVEAEDVGVYYCSQNTHVPPTFGQGTKVEIERTVAAPSVFIFPPSDEQLKSGTASVVCLLNNFYPREAKVQWKVDNALQSGNSQESVTEQDSKDSTYSLSSTLTLSKADYEKHKVYACEVTHQGLSSPVTKSFNRGEC"
4,111 % of control,"GpH7-B3 variant P331_20W/GpL16-k0 (antibody, human IgG1, kappa, also called Ho Ab P331_20W) heavy: not shown light: DIVMTQSPLSLPVTPGEPASISCQASESLVHSNRNTYLHWYLQKPGQSPQLLIYKVSNRFSGVPDRFSGSGSGTDFTLKISRVEAEDVGVYYCSQNTHVPPTFGQGTKVEIERTVAAPSVFIFPPSDEQLKSGTASVVCLLNNFYPREAKVQWKVDNALQSGNSQESVTEQDSKDSTYSLSSTLTLSKADYEKHKVYACEVTHQGLSSPVTKSFNRGEC"
5,111 % of control,"GpH7-B3 variant P331_15Y/GpL16-k0 (antibody, human IgG1, kappa, also called Ho Ab P331_15Y) heavy: not shown light: DIVMTQSPLSLPVTPGEPASISCQASESLVHSNRNTYLHWYLQKPGQSPQLLIYKVSNRFSGVPDRFSGSGSGTDFTLKISRVEAEDVGVYYCSQNTHVPPTFGQGTKVEIERTVAAPSVFIFPPSDEQLKSGTASVVCLLNNFYPREAKVQWKVDNALQSGNSQESVTEQDSKDSTYSLSSTLTLSKADYEKHKVYACEVTHQGLSSPVTKSFNRGEC"
6,114 % of control,"GpH7-B3 variant P238_15Y/GpL16-k0 (antibody, human IgG1, kappa, also called Ho Ab P238_15Y) heavy: not shown light: DIVMTQSPLSLPVTPGEPASISCQASESLVHSNRNTYLHWYLQKPGQSPQLLIYKVSNRFSGVPDRFSGSGSGTDFTLKISRVEAEDVGVYYCSQNTHVPPTFGQGTKVEIERTVAAPSVFIFPPSDEQLKSGTASVVCLLNNFYPREAKVQWKVDNALQSGNSQESVTEQDSKDSTYSLSSTLTLSKADYEKHKVYACEVTHQGLSSPVTKSFNRGEC"
7,103 % of control,"GpH7-B3 variant S337_16H/GpL16-k0 (antibody, human IgG1, kappa, also called Ho Ab S337_16H) heavy: not shown light: DIVMTQSPLSLPVTPGEPASISCQASESLVHSNRNTYLHWYLQKPGQSPQLLIYKVSNRFSGVPDRFSGSGSGTDFTLKISRVEAEDVGVYYCSQNTHVPPTFGQGTKVEIERTVAAPSVFIFPPSDEQLKSGTASVVCLLNNFYPREAKVQWKVDNALQSGNSQESVTEQDSKDSTYSLSSTLTLSKADYEKHKVYACEVTHQGLSSPVTKSFNRGEC"
8,175 % of control,"GpH7-B3 variant S239_10E/GpL16-k0 (antibody, human IgG1, kappa, also called Ho Ab S239_10E) heavy: not shown light: DIVMTQSPLSLPVTPGEPASISCQASESLVHSNRNTYLHWYLQKPGQSPQLLIYKVSNRFSGVPDRFSGSGSGTDFTLKISRVEAEDVGVYYCSQNTHVPPTFGQGTKVEIERTVAAPSVFIFPPSDEQLKSGTASVVCLLNNFYPREAKVQWKVDNALQSGNSQESVTEQDSKDSTYSLSSTLTLSKADYEKHKVYACEVTHQGLSSPVTKSFNRGEC"
9,103 % of control,"GpH7-B3 variant Y296_20W/GpL16-k0 (antibody, human IgG1, kappa, also called Ho Ab Y296_20W) heavy: not shown light: DIVMTQSPLSLPVTPGEPASISCQASESLVHSNRNTYLHWYLQKPGQSPQLLIYKVSNRFSGVPDRFSGSGSGTDFTLKISRVEAEDVGVYYCSQNTHVPPTFGQGTKVEIERTVAAPSVFIFPPSDEQLKSGTASVVCLLNNFYPREAKVQWKVDNALQSGNSQESVTEQDSKDSTYSLSSTLTLSKADYEKHKVYACEVTHQGLSSPVTKSFNRGEC"
10,108 % of control,"GpH7-B3 variant S239_03V/GpL16-k0 (antibody, human IgG1, kappa, also called Ho Ab S239_03V) heavy: not shown light: DIVMTQSPLSLPVTPGEPASISCQASESLVHSNRNTYLHWYLQKPGQSPQLLIYKVSNRFSGVPDRFSGSGSGTDFTLKISRVEAEDVGVYYCSQNTHVPPTFGQGTKVEIERTVAAPSVFIFPPSDEQLKSGTASVVCLLNNFYPREAKVQWKVDNALQSGNSQESVTEQDSKDSTYSLSSTLTLSKADYEKHKVYACEVTHQGLSSPVTKSFNRGEC"
11,100 % of control,"GpH7-B3 variant P331_16H/GpL16-k0 (antibody, human IgG1, kappa, also called Ho Ab P331_16H) heavy: not shown light: DIVMTQSPLSLPVTPGEPASISCQASESLVHSNRNTYLHWYLQKPGQSPQLLIYKVSNRFSGVPDRFSGSGSGTDFTLKISRVEAEDVGVYYCSQNTHVPPTFGQGTKVEIERTVAAPSVFIFPPSDEQLKSGTASVVCLLNNFYPREAKVQWKVDNALQSGNSQESVTEQDSKDSTYSLSSTLTLSKADYEKHKVYACEVTHQGLSSPVTKSFNRGEC"
12,187 % of control,"GpH7-B3 variant S267_06M/GpL16-k0 (antibody, human IgG1, kappa, also called Ho Ab S267_06M) heavy: not shown light: DIVMTQSPLSLPVTPGEPASISCQASESLVHSNRNTYLHWYLQKPGQSPQLLIYKVSNRFSGVPDRFSGSGSGTDFTLKISRVEAEDVGVYYCSQNTHVPPTFGQGTKVEIERTVAAPSVFIFPPSDEQLKSGTASVVCLLNNFYPREAKVQWKVDNALQSGNSQESVTEQDSKDSTYSLSSTLTLSKADYEKHKVYACEVTHQGLSSPVTKSFNRGEC"
13,104 % of control,"GpH7-B3 variant S324_06M/GpL16-k0 (antibody, human IgG1, kappa, also called Ho Ab S324_06M) heavy: not shown light: DIVMTQSPLSLPVTPGEPASISCQASESLVHSNRNTYLHWYLQKPGQSPQLLIYKVSNRFSGVPDRFSGSGSGTDFTLKISRVEAEDVGVYYCSQNTHVPPTFGQGTKVEIERTVAAPSVFIFPPSDEQLKSGTASVVCLLNNFYPREAKVQWKVDNALQSGNSQESVTEQDSKDSTYSLSSTLTLSKADYEKHKVYACEVTHQGLSSPVTKSFNRGEC"
14,185 % of control,"GpH7-B3 variant S267_19Q/GpL16-k0 (antibody, human IgG1, kappa, also called Ho Ab S267_19Q) heavy: not shown light: DIVMTQSPLSLPVTPGEPASISCQASESLVHSNRNTYLHWYLQKPGQSPQLLIYKVSNRFSGVPDRFSGSGSGTDFTLKISRVEAEDVGVYYCSQNTHVPPTFGQGTKVEIERTVAAPSVFIFPPSDEQLKSGTASVVCLLNNFYPREAKVQWKVDNALQSGNSQESVTEQDSKDSTYSLSSTLTLSKADYEKHKVYACEVTHQGLSSPVTKSFNRGEC"
15,104 % of control,"GpH7-B3 variant T335_07I/GpL16-k0 (antibody, human IgG1, kappa, also called Ho Ab T335_07I) heavy: not shown light: DIVMTQSPLSLPVTPGEPASISCQASESLVHSNRNTYLHWYLQKPGQSPQLLIYKVSNRFSGVPDRFSGSGSGTDFTLKISRVEAEDVGVYYCSQNTHVPPTFGQGTKVEIERTVAAPSVFIFPPSDEQLKSGTASVVCLLNNFYPREAKVQWKVDNALQSGNSQESVTEQDSKDSTYSLSSTLTLSKADYEKHKVYACEVTHQGLSSPVTKSFNRGEC"
16,231 % of control,"GpH7-B3 variant V266_06M/GpL16-k0 (antibody, human IgG1, kappa, also called Ho Ab V266_06M) heavy: not shown light: DIVMTQSPLSLPVTPGEPASISCQASESLVHSNRNTYLHWYLQKPGQSPQLLIYKVSNRFSGVPDRFSGSGSGTDFTLKISRVEAEDVGVYYCSQNTHVPPTFGQGTKVEIERTVAAPSVFIFPPSDEQLKSGTASVVCLLNNFYPREAKVQWKVDNALQSGNSQESVTEQDSKDSTYSLSSTLTLSKADYEKHKVYACEVTHQGLSSPVTKSFNRGEC"
